In patent US8173771B2, “Humanin receptor or humanin-like polypeptide receptor” (Keio Univeristy, priority 2005, dated 2012):

Key:
[1] = tested on: G-CSFR/gp130 chimera proteins; assay: G-CSF stimulation of G-CSFR/gp130 chimera proteins in F11 cells, cell mortality by Trypan blue exclusion; format: cell-based, human; conditions: 100 nM
Protocol: (§1) B) F11 cells were transfected with 0.5 μg of the pcDNA3 vector or pcDNA3-APP in association with 0.5 μg of the pEFBos vector or the pEFBos vectors encoding the extracellular domain of the human G-CSF receptor fused to the full transmembrane domain and a C-terminally truncated intracytoplasmic domain of gp130 (named “G-CSFR/gp130”). G-CSFR/gp130 (277) contains the full intracytoplasmic domain of gp130 corresponding to amino acids 1-277, while G-CSFR/gp130 (25), (68), and (133) contain the intracytoplasmic domains corresponding to amino acids 1-25, 1-68, and 1-133, respectively. At 24 hr after transfection, the cells were added with indicated amounts of human G-CSF. Cell mortality was determined by Trypan blue exclusion assay at 72 hr after transfection. The results of immunoblot analysis of the expression of […] are shown in photos.
(§2) C) Instead of the pcDNA3-V6421-APP vector, pcDNA3-K595 N/M596L-APP (NL-APP), M146L-PS1 and N141-I-PS2 vectors were used to do the same experiments as in FIG. 2A. The results of immunoblot analysis of the expression of NL-APP, M146L-PS1 and N141-I-PS2 are shown in photos.
(§3) D) F11 cells were transfected with 0.5 μg of the pEFBos vector or pEF-G85R-SOD1 in association with 0.5 μg of the pEFBos vector or each pEFBos vector encoding G-CSFR/gp130 (277) or G-CSFR/gp130 (25). At 24 hr after transfection, the cells were added with indicated amounts of human G-CSF. Cell mortality was determined by Trypan blue exclusion assay at 72 hr after transfection. The results of the expression of G85R-SOD1, which were confirmed by the immunoblot analysis, are shown in photos.
(§4) Neurohybrid F11 cells and pcDNA3 vectors encoding V642I-APP, K595N/M596L-APP (NL-APP), M146L-PS1, and N141I-PS2 cDNA were prepared as already described (Hashimoto et al, 2000, 2001a, 2003). pCAG-human gp130 and pCAG-human gp130 ED (the extracellular domain of human gp130) were prepared as described (Kumanogoh et al., 1997). pcDNA3 vectors encoding the extracellular domain of the G-CSF receptor fused to the full-length transmembrane domain and various portions of the intracellular domains of human gp130, were prepared as described (Fukada et al, 1996). The intracellular domain of gp130 was C-terminally truncated. A chimera protein named G-277 contained a 277 amino acid-long full intracellular domain of gp130 (SEQ ID NO:35), while G-195, G-133, G-68, and G-25 contained the amino acids 1-195 (SEQ ID NO:36), 1-133 (SEQ ID NO:37), 1-68 (SEQ ID NO:38), and 1-25 (SEQ ID NO:39) intracellular portions, respectively. C-terminally myc-tagged human WSX-1 and myc-tagged mouse CREME9 cDNAs were amplified from human and mouse embryo cDNA (BioChain) by PCR using sets of sense primers and antisense primers: 5′-[…]-3′ (SEQ ID NO:3) and 5′-[…]-3′ (SEQ ID NO:4) for human WSX-1; 5′-[…]-3′ (SEQ ID NO:5); and 5′-[…]-3′ (SEQ ID NO:6) for mouse CREME9. Plasmids encoding C-terminally V5-tagged human CNTF-R (V %-CNTF-R) and rat IL-6R (pUCM18-rat IL-6R) were purchased from Invitrogen and American Culture Collection, respectively. A pEFBos vector comprising familial ALS (FALS) gene G85R-SOD1 was kindly provided by Dr. Shoji Tsuji. Cosmid of human wild […] was constructed by inserting a full-length gp130 into a SwaI site of pAxCAwt (TaKaRa).
(§5) The transfection procedures were as described (Hashimoto et al, 2000, 2001a, 2003). F11 cells, seeded at 7×10^4/well in 6-well dishes, were transfected with indicated vectors. Transfection efficiency in these protocols has been determined to be invariably around 70%. At 72 hrs after transfection, the Trypan blue exclusion assay and LDH assay were performed as a cell-death assay and the WST-8 assay was performed as cell-viability assays (Hashimoto et al, 2000, 2001a b, 2003). HN was added to the culture medium usually at 5 hrs after transfection, but in some cases at 24 hrs after transfection.

[2] = target: T1, G-CSFR/gp130 chimera proteins (Homo sapiens, UniProt P40189+Q99062); assay: as above; format: cell-based; conditions: 100 nM; G-133 expressed
T1 construct: the extracellular domain of the human G-CSF receptor fused to the full transmembrane domain; expressed in transfected cells; host or cells: F11 cells
T1 sequence (Q99062+P40189 with tags, fused parts or gaps): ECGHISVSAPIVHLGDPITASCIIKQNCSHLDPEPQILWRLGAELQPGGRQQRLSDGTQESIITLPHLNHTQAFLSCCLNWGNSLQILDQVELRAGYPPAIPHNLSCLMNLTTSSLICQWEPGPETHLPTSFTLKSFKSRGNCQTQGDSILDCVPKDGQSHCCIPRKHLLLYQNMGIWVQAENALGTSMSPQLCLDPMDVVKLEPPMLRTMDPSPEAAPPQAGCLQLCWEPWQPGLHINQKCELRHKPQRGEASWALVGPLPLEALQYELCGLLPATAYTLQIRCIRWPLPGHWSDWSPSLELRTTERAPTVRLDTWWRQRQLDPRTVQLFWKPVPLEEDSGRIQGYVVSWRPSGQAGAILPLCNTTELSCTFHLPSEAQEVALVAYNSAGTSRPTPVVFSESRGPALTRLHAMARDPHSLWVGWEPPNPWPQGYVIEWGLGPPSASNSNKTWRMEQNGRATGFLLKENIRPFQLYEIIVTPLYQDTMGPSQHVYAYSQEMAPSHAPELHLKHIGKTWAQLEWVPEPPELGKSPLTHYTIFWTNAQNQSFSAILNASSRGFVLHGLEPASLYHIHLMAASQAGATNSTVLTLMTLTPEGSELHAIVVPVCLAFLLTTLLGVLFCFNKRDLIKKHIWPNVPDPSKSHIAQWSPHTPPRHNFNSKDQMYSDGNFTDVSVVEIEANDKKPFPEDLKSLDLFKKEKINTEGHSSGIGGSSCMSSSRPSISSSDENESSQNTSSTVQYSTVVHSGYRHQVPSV
Protocol: as §1, §2, §3, §4, §5

B1: G-CSF: human G-CSF, ligand stimulating G-CSFR/gp130 chimera proteins (protein, UniProt P09919 31-207, looked up)
Granulocyte …: TPLGPASSLPQSFLLKCLEQVRKIQGDGAALQEKLVSECATYKLCHPEELVLLGHSLGIPWAPLSSCPSQALQLAGCLSQLHSGLFLYQGLLQALEGISPELGPTLDTLQLDVADFATTIWQQMEELGMAPALQPTQGAMPAFASAFQRRAGGVLVASHLQSFLEVSYRVLRHLAQP
prevention of neuronal cell death induced by mutant Cu/Zn-superoxide dismutase (G85R-SOD1) [1]: did not prevent | prevention of neuronal cell death induced by V642I-APP ([1]; G-25 or G-68 expressed): did not prevent | prevention of neuronal cell death induced by V642I-APP [2]: partially prevented
